The record followed here is paper PMC5627055, “Interactions of the Bacillus subtilis DnaE polymerase with replisomal proteins modulate its activity and fidelity” (Open Biology, 2017).

The target in series [1] is T1, Bacillus subtilis PolC_(exo-) (D425A/E427A) (B. subtilis, UniProt P13267 1-1437, D425A | E427A).
T1 construct: p2BT-NT-HT-PolC_(exo-); source: E. coli BLR(DE3), purified (HisTrap, TEV cleavage, HisTrap flow through, HiTrap Q, Superdex-200); not shown: His-tag, N-terminal, cleaved
Nature of the series: native gel or EMSA; DnaE (1 µM) pre-incubated with radiolabelled primed 3'-mismatch (A:G) DNA substrate (0.66 nM) at 37°C for 5 min, then increasing PolC or PolC_(exo-) (25-1000 nM) and 5 min more at 37°C; 20 mM HEPES pH 7.5, 50 mM NaCl, 10 mM MgCl2, 1 mM DTT; 5% native polyacrylamide gel; ternary template-DnaE-PolC complex read from the shifted DNA. The note with it: both partners purified.

Series [2] addresses T2, Bacillus subtilis PolC polymerase, wild type (B. subtilis, UniProt P13267 1-1437).
T2 construct: PolC, DNA polymerase of the C family with internal 3'>5' exonuclease domain, Bacillus subtilis; polC gene cloned into p2BT (p2BT-NT-HT-PolC); The N-terminal His-tag was removed with TEV protease during purification; also called wild-type PolC; source: E. coli BLR(DE3), purified (HisTrap, TEV cleavage, HisTrap flow through, HiTrap Q, Superdex-200); not shown: His-tag, N-terminal, cleaved
Described as above. The note with it: both partners purified.

The next series addresses DnaE;PolCexo- (Bacillus subtilis;Bacillus subtilis, UniProt O34623;P13267 1-1115;1-1437, |D425A;E427A). Nature of the series: EMSA; 10 mM Mg2+; 1 uM DnaE, 25-1000 nM PolCexo-; ternary complex; EMSA: 20 mM HEPES pH 7.5, 50 mM NaCl, 10 mM MgCl2, 1 mM DTT, 0.66 nM radiolabelled substrate, 37 C 5 min; 5% native PAGE. The settings on record: protein: recombinant;recombinant; tags: N-terminal His6-MBP removed by TEV;N-terminal His tag removed by TEV; copies: 1;1; 14 bp duplex; 3'-terminal primer mismatch; 15 nt 5' overhang of template.

Series [3] addresses T3, PolCexo- (Bacillus subtilis, UniProt P13267 1-1437, D425A;E427A). Nature of the series: EMSA; 10 mM Mg2+; 1 uM PolCexo-; no detectable stable complex; EMSA: 20 mM HEPES pH 7.5, 50 mM NaCl, 10 mM MgCl2, 1 mM DTT, 0.66 nM radiolabelled substrate, 37 C 5 min; 5% native PAGE. The settings on record: protein: recombinant; tags: N-terminal His tag removed by TEV; 14 bp duplex; 3'-terminal primer mismatch; 15 nt 5' overhang of template.

The target in series [4] is T4, DnaE (Bacillus subtilis, UniProt O34623 1-1115). As to the kind of experiment: EMSA; 10 mM Mg2+; 1 uM DnaE; EMSA: 20 mM HEPES pH 7.5, 50 mM NaCl, 10 mM MgCl2, 1 mM DTT, 0.66 nM radiolabelled substrate, 37 C 5 min; 5% native PAGE. The note with it: protein: recombinant; tags: N-terminal His6-MBP removed by TEV; 14 bp duplex; 3'-terminal primer mismatch; 15 nt 5' overhang of template.

The target of the next series is DnaE;PolC (Bacillus subtilis;Bacillus subtilis, UniProt O34623;P13267 1-1115;1-1437, |). As to the kind of experiment: EMSA; 10 mM Mg2+; 1 uM DnaE, 25-1000 nM PolC; ternary complex, then DNA digested by PolC; EMSA: 20 mM HEPES pH 7.5, 50 mM NaCl, 10 mM MgCl2, 1 mM DTT, 0.66 nM radiolabelled substrate, 37 C 5 min; 5% native PAGE. The settings on record: protein: recombinant;recombinant; tags: N-terminal His6-MBP removed by TEV;N-terminal His tag removed by TEV; copies: 1;1; 14 bp duplex; 3'-terminal primer mismatch; 15 nt 5' overhang of template.

The target of series [5] is T4, DnaE. As to the kind of experiment: EMSA; 10 mM Mg2+; multiple shifted bands; EMSA: 20 mM HEPES pH 7.5, 50 mM NaCl, 10 mM MgCl2, 1 mM DTT, 0.66 nM radiolabelled substrate, 37 C 5 min; 5% native PAGE. The note with it: protein: recombinant; tags: N-terminal His6-MBP removed by TEV; label: radiolabel at 5' end; single strand.
In series [6] the target is T3, PolCexo-. As to the kind of experiment: EMSA; 10 mM Mg2+; no detectable stable complex; EMSA: 20 mM HEPES pH 7.5, 50 mM NaCl, 10 mM MgCl2, 1 mM DTT, 0.66 nM radiolabelled substrate, 37 C 5 min; 5% native PAGE. The note with it: protein: recombinant; tags: N-terminal His tag removed by TEV; 15 bp duplex; 15 nt 5' overhang of template (primer-template).
In series [7] the target is T4, DnaE. Nature of the series: EMSA; 10 mM Mg2+; EMSA: 20 mM HEPES pH 7.5, 50 mM NaCl, 10 mM MgCl2, 1 mM DTT, 0.66 nM radiolabelled substrate, 37 C 5 min; 5% native PAGE. The note with it: protein: recombinant; tags: N-terminal His6-MBP removed by TEV; 15 bp duplex; 15 nt 5' overhang of template (primer-template).

B1: Bacillus subtilis DnaE polymerase, wild type (enzyme, B. subtilis, UniProt O34623 1-1115, looked up)
chain: MSFVHLQVHSGYSLLNSAAAVEELVSEADRLGYASLALTDDHVMYGAIQFYKACKARGINPIIGLTASVFTDDSELEAYPLVLLAKSNTGYQNLLKISSVLQSKSKGGLKPKWLHSYREGIIAITPGEKGYIETLLEGGLFEQAAQASLEFQSIFGKGAFYFSYQPFKGNQVLSEQILKLSEETGIPVTATGDVHYIRKEDKAAYRCLKAIKAGEKLTDAPAEDLPDLDLKPLEEMQNIYREHPEALQASVEIAEQCRVDVSLGQTRLPSFPTPDGTSADDYLTDICMEGLRSRFGKPDERYLRRLQYELDVIKRMKFSDYFLIVWDFMKHAHEKGIVTGPGRGSAAGSLVAYVLYITDVDPIKHHLLFERFLNPERVSMPDIDIDFPDTRRDEVIQYVQQKYGAMHVAQIITFGTLAAKAALRDVGRVFGVSPKEADQLAKLIPSRPGMTLDEARQQSPQLDKRLRESSLLQQVYSIARKIEGLPRHASTHAAGVVLSEEPLTDVVPLQEGHEGIYLTQYAMDHLEDLGLLKMDFLGLRNLTLIESITSMIEKEENIKIDLSSISYSDDKTFSLLSKGDTTGIFQLESAGMRSVLKRLKPSGLEDIVAVNALYRPGPMENIPLFIDRKHGRAPVHYPHEDLRSILEDTYGVIVYQEQIMMIASRMAGFSLGEADLLRRAVSKKKKEILDRERSHFVEGCLKKEYSVDTANEVYDLIVKFANYGFNRSHAVAYSMIGCQLAYLKAHYPLYFMCGLLTSVIGNEDKISQYLYEAKGSGIRILPPSVNKSSFPFTVENGSVRYSLRAIKSVGVSAVKDIYKARKEKPFEDLFDFCFRVPSKSVNRKMLEALIFSGAMDEFGQNRATLLASIDVALEHAELFAADDDQMGLFLDESFSIKPKYVETEELPLVDLLAFEKETLGIYFSNHPLSAFRKQLTAQGAVSILQAQRAVKRQLSLGVLLSKIKTIRTKTGQNMAFLTLSDETGEMEAVVFPEQFRQLSPVLREGALLFTAGKCEVRQDKIQFIMSRAELLEDMDAEKAPSVYIKIESSQHSQEILAKIKRILLEHKGETGVYLYYERQKQTIKLPESFHINADHQVLYRLKELLGQKNVVLKQW
notes: DnaE, DNA polymerase of the C family (DnaE3 group), Bacillus subtilis; dnaE gene cloned into p2CT (p2CT-NT-HT-DnaE); also called DnaEWT; source: E. coli BL21 (DE3) Rosetta, purified (HisTrap, TEV cleavage, HisTrap flow through, ammonium sulfate, HiTrap Q); not shown: His6, N-terminal, cleaved
As to B1, the binding result in series [1] and in [2] was “binds” in each case.

B2: 3'-mismatch (A:G) DNA-primed 30mer template (dsDNA)
DNA 1: ACACACACACACACACACACACACCCCCTT
DNA 2: AAGGGGGTGTGTGTA
For B2, the binding signal with DnaE;PolCexo- is ~4 fold shifted substrate vs DnaE alone (up to). The binding result is reported as “no binding” in the series with PolCexo- [3], “binds” with DnaE [4] and “binds” in the series with DnaE;PolC.

B3: ssDNA 30mer (ssDNA)
DNA: B2 DNA 1
For the molecule B3, in the series with DnaE [5], the binding result is on record as “binds”.

B4: DNA-primed 30mer template (dsDNA)
DNA 1: B2 DNA 1
DNA 2: AAGGGGGTGTGTGTG
Regarding B4, the binding result in the series with PolCexo- [6] was “no binding”; in the series with DnaE [7], “binds”.
